# B1: sPDNF: N-terminal short-form of T cruzi PDNF that contains Trk-binding sites, recombinant; amino acids 1-588 of SEQ ID NO: 2; JR-100 is the commercial name (protein, listed as Trypanosoma cruzi)
# chain: MGKTVVVASRMFWLMFFVPLLLAICPSEPAYALAPGSSRVELFKRKNSTVPFEDKAGKVTERVVHSFRLPALVNVDGVMVAIADARYDTSNDNSLIDTVAKYSVDDGETWETQIAIKNSRVSSVSRVVDPTVIVKGNKLYVLVGSYYSSRSYWSSHGDARDWDILLAVGEVTKSTAGGKITASIKWGSPVSLKKFFPAEMEGMHTNQFLGGAGVAIVASNGNLVYPVQVTNKKKQVFSKIFYSEDDGKTWKFGKGRSDFGCSEPVALEWEGKLIINTRVDWKRRLVYESSDMEKPWVEAVGTVSRVWGPSPKSNQPGSQSSFTAVTIEGMRVMLFTHPLNFKGRWLRDRLNLWLTDNQRIYNVGQVSIGDENSAYSSVLYKDDKLYCLHEINTDEVYSLVFARLVGELRIIKSVLRSWKNWDSHLSSICTPADPAASSSESGCGPAVTTVGLVGFLSGNASQNVWEDAYRCVNASTANAERVRNGLKFAGVGGGALWPVSQQGQNQRYRFANHAFTLVASVTIHEAPRAASPLLGASLDSSGGKKLLGLSYDEKHQWQPIYGSTPVTPTGSWETGKRYHLVLTMANKI
# Assays:
# H9c2 cardiomyocytes [1] = assay: sPDNF stimulation of H9c2 cardiomyocytes, secretion by ELISA; type: cell-based, rat; conditions: H9c2, 3 hr
# Description: (§1) FIG. 8A is a graph showing dose-response of MCP-1 secretion to sPDNF stimulation. H9c2 cardiomyocytes were plated in 6-well plates, grown in low serum (0.1% FCS) overnight, and stimulated with the indicated doses of sPDNF for 3 hr. Secretion of MCP-1, MIP-2α and IL-6 was determined by ELISA. FIG. 8B is a graph showing dose-response of MCP-transcript expression. H9c2 cardiomyocytes were plated in 6-well plates, grown in low serum (0.1%) overnight, and stimulated with the indicated doses of sPDNF for 3 hr, and MCP-transcript quantified by qPCR. Chemokine gene expression was normalized to HPRT and fold change calculated relative to vehicle-treated cells. Points represent mean±SD fold change expression of triplicate samples; *P<0.05, **P<0.01, and ***P<0.005. FIG. 8C is a graph showing time course of MCP-1 and FKN transcripts expression. H9c2 cardiomyocytes were plated in 6-well plates (triplicate), grown in low serum (0.1%) overnight, stimulated with sPDNF (1 μg/ml) for the indicated times, and MCP-1 and FKN (data not shown) transcripts quantified by qPCR. Three experiments gave similar results.
# (§2) Primary cardiomyocytes and cardiac fibroblasts, and H9c2 cardiomyocytes were seeded at 6-8×10^4 cells per well in DMEM/10% FCS and allowed to adhere overnight, serum starved (DMEM/0.1% FCS overnight), and treated with sPDNF (0.5 ng/ml-8 μg/ml, 0-16 h). Cell supernatants were collected and stored at −80° C. and cell monolayers rinsed with PBS and collected in Trizol for qPCR analysis.
# MCP-1: 96-well Maxisorp plates (Nunc) were coated overnight with relevant supernatants or MCP-1 standards (R&D Systems, 479-JE/CF) in coating buffer (50 mM NaHCO3/Na2CO3, pH 9.6, 0.02% NaN3), blocked in 5% BSA/PBST, reacted with a MCP-1 detection antibody (Santa Cruz, SC-28879; 1:200; 2 hr), and then alkaline-phosphatase (AP) conjugated secondary antibody (Sigma A3687; 1:1000; 1 hr). Between each step, plates were washed 2-4 times with PBST. […] MCP-1 concentrations were calculated relative to a 4-parametric standard curve using the SOFTmax Pro program. […]
# H9c2 cardiomyocytes [2] = assay: sPDNF stimulation of H9c2 cardiomyocytes, transcripts by qPCR; type: cell-based, rat
# Description: as §1, §2
# RNA was isolated from Trizol lysates of cell monolayers or liquid nitrogen snap frozen tissue samples dissociated by a Tissue-Tearor mechanical homogenizer (Biospec Products, Inc.). cDNA was synthesized using the Quantitect Reverse Transcription kit (Qiagen) according to manufacturer's instructions. Chemokine and chemokine receptor transcripts were amplified using specific primers and normalized to HPRT using SYBR Green (Qiagen), and, if needed, expressed relative to control-unstimulated cells. The following primers were used: […]
# Limulus amebocyte assay = conditions: sPDNF preparations
# Description: To ensure that the response observed in wild type mice was not due to TLR activation, MCP-1 and FKN response to IV sPDNF was assessed in TLR-deficient MyD88^−/− mice (23).
# PDNF was cloned from the T cruzi Silvio X-10/4 strain (GenBank accession number AJ002174). PDNF and a N-terminal short-form of PDNF (sPDNF) that contains Trk-binding sites, were expressed in BL21 (DE3) bacteria, and purified by Ni-affinity chromatography, as described previously (4, 12, 18, 60). Buffers were prepared in sterile endotoxin-free water, and sPDNF preparations screened with the Limulus amebocyte assay have undetectable levels of endotoxin. sPDNF migrates as a 68 kDa protein on a SDS-PAGE gel. PDNF protein was buffer exchanged into PBS (0.01 M phosphate buffered saline, pH 7.2), filter-sterilized (0.22 μm), and kept at 4° C. PDNF was quantified by scanning densitometry (Bio-Rad, GS-800) of SDS-PAGE gels stained with Coomassie brilliant blue.
# [3] = H9c2, sPDNF 1 μg/ml, time course
molecule,measurement,setting,value
B1,secretion of IL-6,H9c2 cardiomyocytes [1],did not alter
same,secretion of macrophage inflammatory protein-2a/MIP-2a/CXCL2,H9c2 cardiomyocytes [1],did not alter
same,secretion of MCP-1,H9c2 cardiomyocytes [1]; dose-dependently,dramatically increased
same,FKN mRNA,"H9c2 cardiomyocytes [2]; H9c2, 3 hr, dose-dependent",increase
same,MCP-1 mRNA,"H9c2 cardiomyocytes [2]; H9c2, 3 hr, dose-dependent",increase
same,time at which MCP-1 transcript dropped to levels similar to unstimulated cells,H9c2 cardiomyocytes [2]; [3],8 h
same,time of maximal MCP-1 transcript increase after sPDNF stimulation,H9c2 cardiomyocytes [2]; [3],3 h
same,levels of endotoxin,Limulus amebocyte assay,did not have detectable levels
